Substitutions are numbered along the chain they refer to.
T1: mouse SIRPA BALB/c (mouse (BALB/c), UniProt P97797 35-513)
T1 construct: FLAG-tagged (pFLAG V5-DEST), on 293α cells
T1 chain: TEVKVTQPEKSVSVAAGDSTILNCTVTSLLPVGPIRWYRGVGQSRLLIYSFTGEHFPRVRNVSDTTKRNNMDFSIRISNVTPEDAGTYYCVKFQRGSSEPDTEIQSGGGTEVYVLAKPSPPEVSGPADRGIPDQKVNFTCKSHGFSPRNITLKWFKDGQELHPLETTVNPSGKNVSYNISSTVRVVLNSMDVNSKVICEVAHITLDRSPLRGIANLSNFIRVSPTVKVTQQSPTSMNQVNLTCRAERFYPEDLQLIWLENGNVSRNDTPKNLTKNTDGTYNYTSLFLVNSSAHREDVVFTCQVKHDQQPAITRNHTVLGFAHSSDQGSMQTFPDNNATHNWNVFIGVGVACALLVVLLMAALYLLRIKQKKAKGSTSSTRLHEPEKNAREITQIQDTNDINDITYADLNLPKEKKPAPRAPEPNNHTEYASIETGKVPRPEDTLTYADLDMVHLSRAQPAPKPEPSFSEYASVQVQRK

T2: mouse SIRPA_NOD (mouse (NOD), UniProt P97797 32-513)
T2 construct: FLAG-tagged (pFLAG V5-DEST), on 293α cells; also called NOD SCID
T2 chain: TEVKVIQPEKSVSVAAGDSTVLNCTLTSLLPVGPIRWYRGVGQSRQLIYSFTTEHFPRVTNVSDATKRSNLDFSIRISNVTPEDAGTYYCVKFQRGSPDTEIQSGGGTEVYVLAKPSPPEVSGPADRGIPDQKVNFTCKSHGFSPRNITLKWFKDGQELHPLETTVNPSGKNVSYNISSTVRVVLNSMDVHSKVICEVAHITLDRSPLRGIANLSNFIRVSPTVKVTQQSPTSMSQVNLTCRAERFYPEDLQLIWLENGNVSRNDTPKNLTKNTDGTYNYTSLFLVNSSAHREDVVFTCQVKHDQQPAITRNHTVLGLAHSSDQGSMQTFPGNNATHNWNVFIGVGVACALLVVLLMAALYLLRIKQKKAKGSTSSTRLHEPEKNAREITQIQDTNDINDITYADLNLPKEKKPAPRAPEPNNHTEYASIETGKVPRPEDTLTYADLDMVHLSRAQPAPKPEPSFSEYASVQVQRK

B1: humanized anti-SIRPA antibody hD13_H1L3 (antibody, human IgG4 S228P, kappa, F234A L235A, V domains shown)
VH: QVQLVESGGGVVQPGRSLRLSCAASGFTFSDYGMIWVRQAPGKGLEWVASISSSSSYIYYADSVKGRFTISRDNSKNRLYLQMNSLRAEDTAVYYCARRYYGFNYPFDYWGQGTMVTVSS
VL: DTQLTQSPSSLSASVGQRVTITCGASKSVRTYMHWYQQKPGKQPKLLIYSASNLEAGVPSRFSGSGSGTDFTLTISSLQPEDFATYYCQQSNEPPYTFGQGTKLEIKR
notes: hH1 heavy chain (IgG4proFALA) and hL3 kappa light chain; also called hD13_HIL3; HIL3 antibody
B2: humanized anti-SIRPA antibody hD13_H2L2 (antibody, human IgG4 S228P, kappa, F234A L235A, V domains shown)
VH: B1 VH with Q1E, R78T
VL: B1 VL with D1A, T2I, Q43A
notes: hH2 heavy chain (IgG4proFALA) and hL2 kappa light chain; also called H2L2 antibody
B3: humanized anti-SIRPA antibody hD13_H1L4 (antibody, human IgG4 S228P, kappa, F234A L235A, V domains shown)
VH: B1 VH
VL: DTVLTQSPDSLAVSLGQRATINCGASKSVRTYMHWYQQKPGQQPKLLIYSASNLEAGVPSRFSGSGSGTDFTLTISSLQAEDVAVYYCQQSNEPPYTFGQGTKVEIKR
notes: hH1 heavy chain (IgG4proFALA) and hL4 kappa light chain; also called hD13_HIL4; hD13_HIL4h
B4: humanized anti-SIRPA antibody hD13_H2L3 (antibody, human IgG4 S228P, kappa, F234A L235A, V domains shown)
VH: B1 VH with Q1E, R78T
VL: B1 VL
notes: hH2 heavy chain (IgG4proFALA) and hL3 kappa light chain; also called H2L3 antibody
B5: human chimeric anti-SIRPA antibody cD13 (antibody, human IgG4 S228P, kappa, F234A L235A, V domains shown)
VH: EVQLVESGGGLVQPGRSLKLSCLASGFTFSDYGMIWVRQAPGKGLEWVASISSSSSYIYYADTVKGRFTISRENAKNTLFLHMTSLRSEDTALYYCARRYYGFNYPFDYWGQGVMVTVSS
VL: DTVLTQSPALAVSLGQRVTISCGASKSVRTYMHWYQQKSGQQPKLLIYSASNLEAGVPSRFSGSGSGTDFTLTIDPVEADDIANYYCQQSNEPPYTFGAGTKLELKR
notes: Human IgG4proFALA heavy chain, human kappa light chain; also called cD13 (IgG4pf); human chimeric antibody D13

Molecular target: T3, SIRPA_V1_IgV (human, UniProt P78324 31-149)
T3 construct: Secreted recombinant protein from FreeStyle 293F cells
Assay: SPR Biacore T200, antibody captured on anti-human IgG (Fc), SIRPA_V1_IgV as analyte, 1:1 model
Protocol: The dissociation constants of hD13_HIL3, hD13_HIL4, hD13_H2L2, and hD13_H2L3 prepared in Example 7 against human SIRPA_V1_IgV and monkey SIRPA_ECD prepared in Example 1 were measured by a capture method of capturing a humanized antibody as a ligand to an Anti-Human IgG (Fc) antibody immobilized using Human Antibody Capture Kit (GE Healthcare Bioscience Corp.) and measuring an antigen as an analyte, using Biacore T200 (GE Healthcare Bioscience Corp.). HBS-EP+ (GE Healthcare Bioscience Corp.) was used as a running buffer, and CM5 (GE Healthcare Bioscience Corp.) was used as a sensor chip. Onto the chip, 1 μg/mL humanized antibody was added at 10 μL/min for 60 seconds, and then a serially diluted solution (0.5 to 8 μg/mL) of human SIRPA protein or a serially diluted solution (1 to 16 μg/mL) of monkey SIRPA protein was added as an antigen at a flow rate of 30 μL/min for 120 seconds, and subsequently the dissociation phase for 600 seconds was monitored. As a regenerant, 3 M magnesium chloride (GE Healthcare Bioscience Corp.) was added at a flow rate of 20 μL/min for 30 seconds. For data analysis, a binding rate constant (ka), a dissociation rate constant (kd), and a dissociation constant (KD; KD=kd/ka) were calculated using a 1:1 binding model.

T3 sequence (P78324 other isoform, or with tags, fused parts or gaps limits assumed): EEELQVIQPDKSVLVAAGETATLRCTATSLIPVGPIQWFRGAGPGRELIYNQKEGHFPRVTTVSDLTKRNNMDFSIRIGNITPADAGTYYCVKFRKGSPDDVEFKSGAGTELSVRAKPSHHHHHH

Kd [nM]	Binder
0.0785	B1
0.131	B2
0.107	B3
0.0859	B4

Molecular target: T4, human SIRPA_V6 (human, UniProt P78324 31-504)
T4 construct: FLAG-tagged (pFLAG V5-DEST), on 293α cells; also called human SIRPA Variant 6
Assay: cell-based ELISA on 293α cells expressing FLAG-tagged SIRPA_V6; Abs 490 normalized to FLAG tag [ii]
Protocol: (§1) The 293a cells, described in Example 1)-6, were prepared at 5× 10⁵ cells/mL in a 10% FBS-containing DMEM medium. pFLAG V5-DEST-SIRPA_V1-V10, pFLAG V5-DEST-monkey SIRPA, pFLAG V5-DEST-mouse SIRPA, or pFLAG V5-DEST was introduced into the cells using Lipofectamine LTX (Invitrogen), and 100 μL each was aliquoted to a 96-well plate (Corning Incorporated) and cultured overnight in a 10% FBS-containing DMEM medium at 37° C. under a 5% CO₂ condition. The obtained introduced cells were used for cell-based ELISA in a state that they adhered. After the culture supernatant was removed, 50 μL per well of hD13_HIL3, hD13_HIL4h, hD13_H2L2, hD13_H2L3, or cD13 prepared in Examples 6 and 7 or a control antibody was added to each of various SIRPA genes-introduced cells at a final concentration of 0 to 10,000 ng/ml, and the mixture was allowed to stand at 4° C. for one hour. Thereafter, binding to human SIRPA was evaluated in the same manner as in Example 5-1.

T4 sequence (P78324 31-504 S105P limits assumed): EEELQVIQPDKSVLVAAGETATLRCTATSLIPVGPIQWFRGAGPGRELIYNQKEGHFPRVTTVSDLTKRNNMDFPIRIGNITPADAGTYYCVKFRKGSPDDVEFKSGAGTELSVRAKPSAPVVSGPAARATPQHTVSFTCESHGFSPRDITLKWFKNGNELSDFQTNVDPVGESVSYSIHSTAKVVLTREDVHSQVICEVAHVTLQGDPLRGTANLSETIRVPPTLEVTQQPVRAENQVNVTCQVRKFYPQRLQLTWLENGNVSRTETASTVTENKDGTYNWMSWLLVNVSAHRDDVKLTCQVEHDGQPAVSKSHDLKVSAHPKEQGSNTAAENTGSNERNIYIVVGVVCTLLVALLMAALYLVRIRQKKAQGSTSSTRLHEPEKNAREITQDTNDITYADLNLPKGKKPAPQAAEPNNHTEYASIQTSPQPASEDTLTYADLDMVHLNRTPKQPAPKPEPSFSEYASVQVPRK

EC50 (read off the curve) [ng/mL]	Binder
~40	B1
~40	B2
~40	B3
~40	B4
~40	B5

Molecular target: T1, mouse SIRPA BALB/c
Assay: cell-based ELISA on 293α cells expressing FLAG-tagged mouse SIRPA (BALB/c); Abs 490 normalized to FLAG tag [ii]
Protocol: as §1

binding result	Binder
no binding (tested: 10000 ng/mL)	B1
no binding (tested: 10000 ng/mL)	B2
no binding (tested: 10000 ng/mL)	B3
no binding (tested: 10000 ng/mL)	B4
no binding (tested: 10000 ng/mL)	B5

Molecular target: T2, mouse SIRPA_NOD
Assay: cell-based ELISA on 293α cells expressing FLAG-tagged mouse SIRPA (NOD); Abs 490 normalized to FLAG tag [i]
Protocol: as §1

binding result	Binder
no binding (tested: 10000 ng/mL)	B1
no binding (tested: 10000 ng/mL)	B2
no binding (tested: 10000 ng/mL)	B3
no binding (tested: 10000 ng/mL)	B4
no binding (tested: 10000 ng/mL)	B5

Reference: patent US20260098102A1 (NATIONAL UNIVERSITY CORPORATION KOBE UNIVERSITY, published 2026)
